Values of other authors in article PMC3899951.

How the values were obtained:
[1] = target: histone H4 K5,8,12,16ac peptide (Homo sapiens) (UniProt P62805)
[2] = target: histone H4 singly acetylated peptide (Homo sapiens) (UniProt P62805)

TAFII250 tandem bromodomain (from UniProt P21675)
Kd [1]: 5 µM
Kd [2]: 39 µM
